Test results published in patent publication US20070202552A1 (Genentech, published 2007).

B1: B9 (Fab, V domains shown)
VH: EVQLVESGGGLVQPGGSLRLSCAASGFSIYYSYIHWVRQAPGKGLEWVASIYPSSGYTSYADSVKGRFTISADTSKNTAYLQMNSLRAEDTAVYYCARWWSSAFDYWGQGTLVTVSS
VL: DIQMTQSPSSLSASVGDRVTITCRASQDVNTAVAWYQQKPGKAPKLLIYSASSLYSGVPSRFSGSRSGTDFTLTISSLQPEDFATYYCQQSYYSPSTFGQGTKVEIK
B2: B1 (Fab, V domains shown)
VH: EVQLVESGGGLVQPGGSLRLSCAASGFYISSSYIHWVRQAPGKGLEWVASIYPYSGYTSYADSVKGRFTISADTSKNTAYLQMNSLRAEDTAVYYCARYYSYAFDYWGQGTLVTVSS
VL: DIQMTQSPSSLSASVGDRVTITCRASQDVNTAVAWYQQKPGKAPKLLIYSASSLYSGVPSRFSGSRSGTDFTLTISSLQPEDFATYYCQQSYYSPSTFGQGTKVEIK
B3: B10 (Fab, V domains shown)
VH: EVQLVESGGGLVQPGGSLRLSCAASGFSIYYSYIHWVRQAPGKGLEWVASIYPSSGYTSYADSVKGRFTISADTSKNTAYLQMNSLRAEDTAVYYCARWWSSGFDYWGQGTLVTVSS
VL: DIQMTQSPSSLSASVGDRVTITCRASQDVNTAVAWYQQKPGKAPKLLIYSASSLYSGVPSRFSGSRSGTDFTLTISSLQPEDFATYYCQQSYYSPSTFGQGTKVEIK
B4: B12 (Fab, V domains shown)
VH: EVQLVESGGGLVQPGGSLRLSCAASGFSISYSYIHWVRQAPGKGLEWVASIYPYSGYTSYADSVKGRFTISADTSKNTAYLQMNSLRAEDTAVYYCARWWSWAFDYWGQGTLVTVSS
VL: DIQMTQSPSSLSASVGDRVTITCRASQDVNTAVAWYQQKPGKAPKLLIYSASSLYSGVPSRFSGSRSGTDFTLTISSLQPEDFATYYCQQYYYSPSTFGQGTKVEIK
B5: B13 (Fab, V domains shown)
VH: EVQLVESGGGLVQPGGSLRLSCAASGFSIYYSYIHWVRQAPGKGLEWVASIYPSSGYTSYADSVKGRFTISADTSKNTAYLQMNSLRAEDTAVYYCARWWSSAFDYWGQGTLVTVSS
VL: DIQMTQSPSSLSASVGDRVTITCRASQDVNTAVAWYQQKPGKAPKLLIYSASSLYSGVPSRFSGSRSGTDFTLTISSLQPEDFATYYCQQSYYYPSTFGQGTKVEIK
B6: B14 (Fab, V domains shown)
VH: EVQLVESGGGLVQPGGSLRLSCAASGFSIYYSYIHWVRQAPGKGLEWVASIYPSSGYTSYADSVKGRFTISADTSKNTAYLQMNSLRAEDTAVYYCARWWSSAFDYWGQGTLVTVSS
VL: DIQMTQSPSSLSASVGDRVTITCRASQDVNTAVAWYQQKPGKAPKLLIYSASSLYSGVPSRFSGSRSGTDFTLTISSLQPEDFATYYCQQYYYYPYTFGQGTKVEIK
B7: B15 (Fab, V domains shown)
VH: EVQLVESGGGLVQPGGSLRLSCAASGFSISSSYIHWVRQAPGKGLEWVASIYPYSGYTSYADSVKGRFTISADTSKNTAYLQMNSLRAEDTAVYYCARWWSSALDYWGQGTLVTVSS
VL: DIQMTQSPSSLSASVGDRVTITCRASQDVNTAVAWYQQKPGKAPKLLIYSASSLYSGVPSRFSGSRSGTDFTLTISSLQPEDFATYYCQQSYYSPSTFGQGTKVEIK
B8: G33 (Fab, V domains shown)
VH: EVQLVESGGGLVQPGGSLRLSCAASGFSIWSSWIHWVRQAPGKGLEWVASISPSSGWTSYADSVKGRFTISADTSKNTAYLQMNSLRAEDTAVYYCARWWSSALDYWGQGTLVTVSS
VL: DIQMTQSPSSLSASVGDRVTITCRASQDVNTAVAWYQQKPGKAPKLLIYSASSLYSGVPSRFSGSRSGTDFTLTISSLQPEDFATYYCQQWWWWPSTFGQGTKVEIK
B9: G53 (Fab, V domains shown)
VH: EVQLVESGGGLVQPGGSLRLSCAASGFSISSSYIHWVRQAPGKGLEWVASIYPYSGYTSYADSVKGRFTISADTSKNTAYLQMNSLRAEDTAVYYCARYYSSAFDYWGQGTLVTVSS
VL: DIQMTQSPSSLSASVGDRVTITCRASQDVNTAVAWYQQKPGKAPKLLIYSASSLYSGVPSRFSGSRSGTDFTLTISSLQPEDFATYYCQQSYYYPSTFGQGTKVEIK
B10: G55 (Fab, V domains shown)
VH: EVQLVESGGGLVQPGGSLRLSCAASGFSIYSSYIHWVRQAPGKGLEWVASIYPYSGYTSYADSVKGRFTISADTSKNTAYLQMNSLRAEDTAVYYCARYYSYAFDYWGQGTLVTVSS
VL: DIQMTQSPSSLSASVGDRVTITCRASQDVNTAVAWYQQKPGKAPKLLIYSASSLYSGVPSRFSGSRSGTDFTLTISSLQPEDFATYYCQQSYYYPSTFGQGTKVEIK
B11: G56 (Fab, V domains shown)
VH: EVQLVESGGGLVQPGGSLRLSCAASGFYISSSYIHWVRQAPGKGLEWVASIYPYSGYTSYADSVKGRFTISADTSKNTAYLQMNSLRAEDTAVYYCARYYSYALDYWGQGTLVTVSS
VL: DIQMTQSPSSLSASVGDRVTITCRASQDVNTAVAWYQQKPGKAPKLLIYSASSLYSGVPSRFSGSRSGTDFTLTISSLQPEDFATYYCQQSYYSPSTFGQGTKVEIK
B12: G41 (Fab, V domains shown)
VH: EVQLVESGGGLVQPGGSLRLSCAASGFWIWSSSIHWVRQAPGKGLEWVAWISPSSGSTWYADSVKGRFTISADTSKNTAYLQMNSLRAEDTAVYYCARSSWSSWSSALDYWGQGTLVTVSS
VL: DIQMTQSPSSLSASVGDRVTITCRASQDVNTAVAWYQQKPGKAPKLLIYSASSLYSGVPSRFSGSRSGTDFTLTISSLQPEDFATYYCQQWSSWPSTFGQGTKVEIK
B13: G42 (Fab, V domains shown)
VH: EVQLVESGGGLVQPGGSLRLSCAASGFWIWSSSIHWVRQAPGKGLEWVAWISPSSGSTWYADSVKGRFTISADTSKNTAYLQMNSLRAEDTAVYYCARSSWSSWSSALDYWGQGTLVTVSS
VL: DIQMTQSPSSLSASVGDRVTITCRASQDVNTAVAWYQQKPGKAPKLLIYSASSLYSGVPSRFSGSRSGTDFTLTISSLQPEDFATYYCQQWSSWPSTFGQGTKVEIK
B14: G59 (Fab, V domains shown)
VH: EVQLVESGGGLVQPGGSLRLSCAASGFYISSSSIHWVRQAPGKGLEWVAYISPSSGYTYYADSVKGRFTISADTSKNTAYLQMNSLRAEDTAVYYCARYYSSYYSYYSYALDYWGQGTLVTVSS
VL: DIQMTQSPSSLSASVGDRVTITCRASQDVNTAVAWYQQKPGKAPKLLIYSASSLYSGVPSRFSGSRSGTDFTLTISSLQPEDFATYYCQQSYSYPYTFGQGTKVEIK
B15: G60 (Fab, V domains shown)
VH: EVQLVESGGGLVQPGGSLRLSCAASGFSIYYSSIHWVRQAPGKGLEWVASIYPYSGSTYYADSVKGRFTISADTSKNTAYLQMNSLRAEDTAVYYCARYYSSYSSSSSYYYYAFDYWGQGTLVTVSS
VL: DIQMTQSPSSLSASVGDRVTITCRASQDVNTAVAWYQQKPGKAPKLLIYSASSLYSGVPSRFSGSRSGTDFTLTISSLQPEDFATYYCQQYYSSPYTFGQGTKVEIK
B16: G61 (Fab, V domains shown)
VH: EVQLVESGGGLVQPGGSLRLSCAASGFSIYYSSIHWVRQAPGKGLEWVASIYPSSGSTYYADSVKGRFTISADTSKNTAYLQMNSLRAEDTAVYYCARYYSSSSSYSSSYYYYAFDYWGQGTLVTVSS
VL: DIQMTQSPSSLSASVGDRVTITCRASQDVNTAVAWYQQKPGKAPKLLIYSASSLYSGVPSRFSGSRSGTDFTLTISSLQPEDFATYYCQQYYSSPYTFGQGTKVEIK

The binders below were run against T1, human HER-2 extracellular domain (HER-2 ECD) (human, UniProt P04626 23-646) (assay: competitive Fab-phage ELISA).
T1 construct: range 23-646; also called erbB2; HER2 protein
B1 gave an IC50 of 0.72 nM. In the case of B2, the IC50 is reported as 6.28 nM. Work on B3 yielded an IC50 of 3.76 nM. In the case of B4, the IC50 is reported as 6.66 nM. Work on B5 yielded an IC50 of 1.1 nM. For B6, the IC50 was 1.36 nM. B7 gave an IC50 of 1.75 nM.

Target: T1, human HER-2 extracellular domain (HER-2 …)
Test: competitive Fab-phage ELISA
Remark: another data set of the same source
In the case of B8, the IC50 is reported as 1.7 nM. B9 showed an IC50 of 9.75 nM. Binder B10 has an IC50 of 6.52 nM. Work on B11 yielded an IC50 of 7.13 nM. For B12, the IC50 was 51 nM. B13 showed an IC50 of 43 nM. Work on B14 yielded an IC50 of 6.8 nM. B15 gave an IC50 of 79.8 nM. For B16, the IC50 was 145 nM.
